Experimental findings from US6218508A, “Anti-microbial proteins” (Novartis AG, priority 1993, dated 2001) are described below.

To fix the notation:
B1: SEQ ID No 1: anti-fungal protein of about 7 kDa from sugar beet leaf intercellular washing fluid, peak 3.1 in FIG. 3 (protein)
chain: ITCGLVASKLAPCIGYLQGAPGPSAGCCGGIKGLNSAAASPADRKTACTCLKSAATSIKGINYGKAASLPRQCGVSVPYAISPNTNCNAIH
B2: SEQ ID No 2: anti-fungal protein of about 7 kDa from sugar beet leaf intercellular washing fluid, peak 3.2 in FIG. 3 (protein)
chain: B1 chain with I58M, V77I

Numbering of substitutions follows the chain as printed.

The subject of this assay is C. beticola. The assay can be described thus: micro-titre plate bioassay of fungal growth inhibition. The class given is cell-based. Conditions: spores of C. beticola, 96 well micro-titre plates, absorbance at 620 nm; FIGS. 4 and 7: 10 ug protein. As to the method: The thus obtained IWF is fractionated by cation exchange chromatography on a 10 ml CM-Sepharose column (Pharmacia LKB) pre-equilibrated in starting buffer (20 mM HAc (pH 4.5)). The fractionation is performed at 4° C. at a flow rate of 25 ml/h. Fractions of 3 ml are collected. Proteins not bound to the column are removed by extensive washing of the column with starting buffer. Bound proteins are eluted by applying to the column further starting buffer comprising stepwise increased salt concentrations: viz, 0.1 M NaCl, 0.3 M NACl and 0.5 M NaCl. The absorbance at 280 nm of the eluate is measured, and fractions judged to comprise protein are tested for their anti-fungal activity against C. beticola using the microtiter plate bioassay described previously (PCT Patent Application No. PCT/DK92/00108, Publication No. WO 92/17591, now assigned to Sandoz LTD). […] The inhibition of fungal growth is measured in 96 well micro-titre plates at 620 nm, essentially as described in WO 92/17591. […] The proteins, either alone or in combination with WIN N (which is purified from barley grain or stressed barley leaf as described by Hejgaard et al (FEBS Letters, 307, 389-392 (1992)), and/or a protein having a sequence corresponding to at least one of those given in SEQ ID Nos. 4-6, are incubated with spores of C. beticola. The assay mix (240 ul) contains 100 ul of potato dextrose broth (Difco), 40 ul protein sample (or buffer control) in 100 mM Tris and 20 mM NaCl (pH 8.0) as well as approximately 400 spores in 100 ul water. The micro-titre plates are sealed with tape to avoid evaporation and contamination and subsequently incubated at room temperature on an agitator operated at 200 rpm. The absorbance at 620 nm is measured each day for 8 days and plotted for each concentration of protein vs time.
Regarding “SEQ ID No 3: anti-fungal protein of 2.5-3 kDa from sugar beet leaf intercellular washing fluid, peaks 1 and 2 in FIG. 6 (SGECNMYGRCPPGYCCSKFGYCGVGRAYCG)”, the “anti-fungal activity (inhibition of fungal growth)” value was “significant anti-fungal activity”. Regarding B1, the “anti-fungal activity (inhibition of fungal growth)” value is “significant anti-fungal activity”.

On to B2, for which the “anti-fungal activity (inhibition of fungal growth)” value is on record as “significant anti-fungal activity”.
